Source: US11298402B2, “Lysosomal degradation of lipids and proteins and method of use thereof” (University of Ottawa, priority 2015, dated 2022)
Numbering of substitutions follows the chain as printed. Numbers in names are those of the source. Entries after “also recorded” stand apart in the source; their conditions may differ.

Experiments:
[1] = system: McA-RH7777 cells (A18-C3); assay: Live imaging of lysosomal motility and lysosome-CLD interaction (kiss-and-run); type: cell-based, rat; details: for lysosomal adherence to / dissociation from CLD (the off phase): Arl8b-expressing cells, EPA
[2] = system: McA-RH7777 cells (A18-C3); assay: Immuno-EM of Arl8b organellar association; type: cell-based, rat; details: RFP-tagged Arl8b in transfected cells, 1 h post-EPA
Procedure: For immunogold labeling, pellets of cells cultured in media containing OA or EPA (0.4 mM) were fixed with 0.5% glutaraldehyde and 4% paraformaldehyde in 0.1 M phosphate buffer (pH 7.4) and dehydrated through a series of graded ethanol dilutions, and embedded in LR White acrylic resin (London Resin Company). Ultrathin sections (80 nm) were placed on Formvar-coated nickel grids. For post-embedding immunolabeling, the sections were incubated with an anti-Arl8b antibody (Fitzgerald) for 1 h. For ^RFPArl8b-transfected cells, that primary antibody used was anti-RFP (Abcam). After washing with 0.2 M sodium cacodylate buffer containing 0.1% calcium chloride, pH 7.4, the samples were incubated with the secondary antibody conjugated with 10-nm gold particles. To increase contrast, the ultrathin sections were stained with 2% uranyl acetate for 6 min and Reynold's lead for 5 min. The grids were examined with a Tecnai 12 120 kV TEM as described above.

[3] = system: C57BL/6 mice; assay: Diet-induced fatty liver mouse model (high-fat-high-sucrose diet), Oil Red O; type: in vivo; details: adenovirus injected 1 day before HFHS diet for up to 4 days
Procedure: The respective Arl8b^T34N (DN), Arl8b^Q75L (DA), and Arl8b^WT constructs, along with empty virus (EV; control treatment) were injected into mice 1 day prior to feeding with a high fat diet for up to 4 days. The livers were stained with Oil Red O to determine the lipid contents, under the expression of various forms of Arl8b.
In these experiments, C57BL/6 mice were injected with adenovirus encoding different variants, namely Arl8b^T34N, Arl8b^Q75L, and Arl8b^WT. In these mice, expression of Arl8b proteins encoded by the adenoviral vectors lasts at least a few weeks. Thus, 1-day after viral injection, the mice were placed on a high-fat-high-sucrose (HFHS) diet for up to 4 days.

[4] = system: hepatic cells; assay: Hepatic glucose uptake (fluorescent 2-NBDG assay); type: cell-based; details: transfected cells treated with EPA
[5] = system: endogenous HOPS subunits (Vps41, Vps11, Vps39); assay: Proximity ligation assay (in situ co-IP) of Arl8b with HOPS subunits; type: cell-based, rat; details: mCherry-tagged Arl8b mutants; baseline and 1 h post-EPA
Procedure: In certain non-limiting examples described herein, McA-RH7777 cells stably expressing human apoB-100 and human apoC-III (designated A18-C3) were used for the studies. […] In addition, these studies, particularly those concerning EPA- or DHA-triggered lysosomal motility and CLD degradation, were also performed using primary rat hepatocytes. Transfection of plasmids encoding proteins of interest, or transfection of siRNA specific for silencing target gene expression, was achieved using the FuGENE HP Extreme reagent (Roche). Representative gene silencing siRNA sequences, which are not meant to be limiting, are described in Table 1, and plasmids encoding proteins of interest are described in Table 2. The effectiveness of siRNA silencing was verified by Western-blotting of cellular content of the target proteins, and by intracellular localization assay using siRNA-Tracker (Mirus Bioscience). Twenty-four h after plasmid transfection, or 48 h after siRNA transfection, the cells were cultured in lipid-rich media containing fetal bovine serum (20%) and OA (0.4 mM). The lipid-laden cells were switched to fresh media supplemented with OA or EPA (0.4 mM). In live imaging experiments, LipidTOX Red (Life Technologies) and LysoTracker (Life Technologies) were added to media prior to EPA treatment, to visualize lipid droplets and lysosomes, respectively. For visualizing peroxisomes, Peroxisome-GFP (Invitrogen) was introduced to the cells 24 h prior to experiments. Quantification of cell lipid contents was achieved either by direct mass measurement (HPTLC) and counting the number of lipid droplets using Image J Lipid Droplet Counter Plug-In, or indirectly by Western blot analysis of cellular content of ADRP. Secretion of apoB and TG-rich lipoprotein was determined by Western blot analysis and metabolic labeling. Mitochondrial β-oxidation was measured using MitoSOX Red (Life Technologies) in situ. Autophagic flux was determined by using Cyto-ID assay (Enzo Life Science) and by monitoring GFP-LC3 clustering in situ. Interaction of Arl8b and subunits of the HOPS complex was determined in situ by the proximity ligation assay (Olink Biosience). Cytoplasmic pH was measured using the cytosolic pHrodo indicator reagent (Invitrogen). Live imaging of fluorescent-tagged proteins was performed 1 h post-EPA treatment. Cells were also collected at the time of EPA treatment for transmission EM and tomography, as well as immuno-EM. For movies, cells were imaged at 60 sec intervals every 5 min, for a total of 30 min.
Cells were transfected with plasmids encoding RFP-tagged Arl8b^WT, Arl8b^Q75L, or Arl8b^T34N. The cells were treated with OA for 16 h (baseline condition as control). […] Quantification of signals was done in a total of 50 cells under each condition from 3 independent experiments.

B1: Arl8b^T34N: putative GDP-bound, dominant negative Arl8b mutant (Thr-to-Asn at 34; SEQ ID NO: 12), expressed from plasmid or adenovirus Adv-MG1023; tagged forms used (protein)
chain: MLALISRLLDWFRSLFWKEEMELTLVGLQYSGKNTFVNVIASGQFSEDMIPTVGFNMRKVTKGNVTIKIWDIGGQPRFRSMWERYCRGVNAIVYMIDAADREKIEASRNELHNLLDKPQLQGIPVLVLGNKRDLPNALDEKQLIEKMNLSAIQDREICCYSISCKEKDNIDITLQWLIQHSKSRRS
modifications: GFP/RFP tags in some forms; T34N substitution, GDP-binding
notes: tagged forms used
lysosomal adherence to / dissociation from CLD (the off phase) [1]: fastened | organellar association (lysosome vs CLD) [2]: mainly CLD-borne | liver steatosis (Oil Red O) [3]: nearly absent lipid accumulation | glucose uptake [4]: increased rate of glucose uptake | binding to endogenous HOPS subunits [5]: only shows interaction with Vps39

B2: Arl8b^Q75L: putative GTP-bound, dominant active Arl8b mutant (Gln-to-Leu at 75; SEQ ID NO: 13), expressed from plasmid or adenovirus Adv-MG1022; tagged forms used (protein)
chain: B1 chain with N34T, Q75L
modifications: GFP/RFP tags in some forms; Q75L substitution, GTP-binding
notes: tagged forms used
lysosomal adherence to / dissociation from CLD (the off phase) [1]: no disassociation of lysosomes from CLD occurred | lysosomal adherence to / dissociation from CLD (the off phase) ([1]; listed as GFP::Arl8b^Q75L): prolonged lysosomal adherence to CLD | effect on EPA-triggered lysosomal motility / lysosomal interaction with CLD ([1]; cells silenced, transfected or pre-treated (15 min) before EPA): higher incidence of direct lysosome-lipid droplet interaction | organellar association (lysosome vs CLD) [2]: predominately associated with lysosomes | liver steatosis (Oil Red O) [3]: developed pronounced steatosis | glucose uptake [4]: virtually abolished glucose uptake | binding to endogenous HOPS subunits [5]: binds to Vps41 and Vps11; also recorded: does not bind to Vps39
